From publication PMC4737164, “DNA recognition for virus assembly through multiple sequence-independent interactions with a helix-turn-helix motif”

Columns and labels:
[1] = target: T1, SF6 small terminase (GP1) DBD wild type (Bacillus phage SF6, UniProt P68928 1-68); assay: AUC; 2-3 proteins per DNA, saturated; 20 mM HEPES, 150 mM KCl (300 mM in second ReDCaT), pH 7.0, +0.05% Tween 20 for SPR; ReDCaT 20 uM protein; AUC 20 C; NMR 20 mM MES, 150 mM KCl, pH 6.0, 25 C; conditions: protein: recombinant; tags: C-terminal 3C site-His tag, cleaved; label: 3'-ATTO 647N strand 1; blunt
T1 sequence: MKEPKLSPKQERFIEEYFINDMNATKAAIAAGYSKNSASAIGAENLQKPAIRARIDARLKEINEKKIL

[2] = target: T2, SF6 small terminase DBD K48A (Bacillus phage SF6, UniProt P68928 1-68, K48A); assay: SPR; up to 1500 uM protein; 20 mM HEPES, 150 mM KCl (300 mM in second ReDCaT), pH 7.0, +0.05% Tween 20 for SPR; ReDCaT 20 uM protein; AUC 20 C; NMR 20 mM MES, 150 mM KCl, pH 6.0, 25 C; conditions: protein: recombinant; tags: C-terminal 3C site-His tag, cleaved; label: 5'-biotin strand 1 (SPR); none in NMR; blunt
T2 sequence: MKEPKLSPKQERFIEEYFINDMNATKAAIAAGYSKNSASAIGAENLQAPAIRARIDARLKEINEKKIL

[3] = target: T3, SF6 small terminase DBD K26A (Bacillus phage SF6, UniProt P68928 1-68, K26A); assay: SPR; McGhee-von Hippel, site size 3 bp; 20 mM HEPES, 150 mM KCl (300 mM in second ReDCaT), pH 7.0, +0.05% Tween 20 for SPR; ReDCaT 20 uM protein; AUC 20 C; NMR 20 mM MES, 150 mM KCl, pH 6.0, 25 C; conditions: protein: recombinant; tags: C-terminal 3C site-His tag, cleaved; label: 5'-biotin strand 1 (SPR); none in NMR; blunt
T3 sequence: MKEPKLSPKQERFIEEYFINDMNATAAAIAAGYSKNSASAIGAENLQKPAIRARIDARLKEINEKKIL

[4] = target: T1, SF6 small terminase (GP1) DBD wild type; assay: SPR; McGhee-von Hippel, site size 3 bp; not saturated; 20 mM HEPES, 150 mM KCl (300 mM in second ReDCaT), pH 7.0, +0.05% Tween 20 for SPR; ReDCaT 20 uM protein; AUC 20 C; NMR 20 mM MES, 150 mM KCl, pH 6.0, 25 C; conditions: protein: recombinant, tags: C-terminal 3C site-His tag, cleaved, label: 5'-biotin strand 1 (SPR), blunt
[5] = target: T1, SF6 small terminase (GP1) DBD wild type; assay: SPR; 150 mM KCl; superstoichiometric, low affinity; 20 mM HEPES, 150 mM KCl (300 mM in second ReDCaT), pH 7.0, +0.05% Tween 20 for SPR; ReDCaT 20 uM protein; AUC 20 C; NMR 20 mM MES, 150 mM KCl, pH 6.0, 25 C; conditions: protein: recombinant; tags: C-terminal 3C site-His tag, cleaved; label: 5'-biotin strand 3; nicked 50 bp
[6] = target: T1, SF6 small terminase (GP1) DBD wild type; assay: SPR; 300 mM KCl; not significantly changed vs P6/F3; 20 mM HEPES, 150 mM KCl (300 mM in second ReDCaT), pH 7.0, +0.05% Tween 20 for SPR; ReDCaT 20 uM protein; AUC 20 C; NMR 20 mM MES, 150 mM KCl, pH 6.0, 25 C; conditions: protein: recombinant; tags: C-terminal 3C site-His tag, cleaved; label: 5'-biotin strand 3; nicked 50 bp
[7] = target: T1, SF6 small terminase (GP1) DBD wild type; assay: SPR; 300 mM KCl; above-average density; 20 mM HEPES, 150 mM KCl (300 mM in second ReDCaT), pH 7.0, +0.05% Tween 20 for SPR; ReDCaT 20 uM protein; AUC 20 C; NMR 20 mM MES, 150 mM KCl, pH 6.0, 25 C; conditions: protein: recombinant; tags: C-terminal 3C site-His tag, cleaved; label: 5'-biotin strand 3; nicked 50 bp
[8] = target: T1, SF6 small terminase (GP1) DBD wild type; assay: AUC; 1.5 mM protein; 1:1; Kd stated in mM range; 20 mM HEPES, 150 mM KCl (300 mM in second ReDCaT), pH 7.0, +0.05% Tween 20 for SPR; ReDCaT 20 uM protein; AUC 20 C; NMR 20 mM MES, 150 mM KCl, pH 6.0, 25 C; conditions: protein: recombinant; tags: C-terminal 3C site-His tag, cleaved; label: 3'-ATTO 647N in AUC; hairpin, 5 bp, TTTT loop
[9] = target: T1, SF6 small terminase (GP1) DBD wild type; assay: SPR; 300 mM KCl; increased, approaching F5; 20 mM HEPES, 150 mM KCl (300 mM in second ReDCaT), pH 7.0, +0.05% Tween 20 for SPR; ReDCaT 20 uM protein; AUC 20 C; NMR 20 mM MES, 150 mM KCl, pH 6.0, 25 C; conditions: protein: recombinant; tags: C-terminal 3C site-His tag, cleaved; label: 5'-biotin strand 3; nicked
[10] = target: T1, SF6 small terminase (GP1) DBD wild type; assay: AUC; 1:1; Kd stated in mM range; 20 mM HEPES, 150 mM KCl (300 mM in second ReDCaT), pH 7.0, +0.05% Tween 20 for SPR; ReDCaT 20 uM protein; AUC 20 C; NMR 20 mM MES, 150 mM KCl, pH 6.0, 25 C; conditions: protein: recombinant; tags: C-terminal 3C site-His tag, cleaved; label: 5'-6-FAM in AUC; hairpin, 5 bp, 1 nt 5' overhang
[11] = target: T1, SF6 small terminase (GP1) DBD wild type; assay: AUC; 1 mM protein; 5 proteins per DNA, not saturated; 20 mM HEPES, 150 mM KCl (300 mM in second ReDCaT), pH 7.0, +0.05% Tween 20 for SPR; ReDCaT 20 uM protein; AUC 20 C; NMR 20 mM MES, 150 mM KCl, pH 6.0, 25 C; conditions: protein: recombinant; tags: C-terminal 3C site-His tag, cleaved; label: 5'-TAMRA strand 1; blunt

B1: 11-bp DNA (dsDNA)
DNA 1: GCCTACCCTAC
DNA 2: GTAGGGTAGGC
- binding result [1]: binds

B2: 20-bp linker dsDNA (dsDNA)
DNA 1: GCAGGAGGACGTAGGGTAGG
DNA 2: CCTACCCTACGTCCTCCTGC
- binding result [2]: no binding
- Kd [3]: 3080 ± 30 µM
- Kd ([4]; none in NMR): 920 ± 10 µM

B3: 30-bp linker dsDNA (dsDNA)
DNA 1: GAGACCTGGAACGCGATCATTGGCAGCACG
DNA 2: CGTGCTGCCAATGATCGCGTTCCAGGTCTC
- Kd [4]: 1850 ± 20 µM

B4: P6 (boxA) (dsDNA)
DNA 1: ATTAGGTTTATATAAGGTTTTATCATTCAG
DNA 2: CTGAATGATAAAACCTTATATAAACCTAATCCTACCCTACGTCCTCCTGC
DNA 3: GCAGGAGGACGTAGGGTAGG
- binding result [5]: binds

B5: P6_F3 (dsDNA)
DNA 1: ATTAGGTTTATATAAGGTTTTATACATCAG
DNA 2: CTGATGTATAAAACCTTATATAAACCTAATCCTACCCTACGTCCTCCTGC
DNA 3: GCAGGAGGACGTAGGGTAGG
- binding result [6]: binds

B6: F5 (S5) (dsDNA)
DNA 1: TTTTATGAAAGAACCTAAACTATCTCCAAA
DNA 2: TTTGGAGATAGTTTAGGTTCTTTCATAAAACCTACCCTACGTCCTCCTGC
DNA 3: GCAGGAGGACGTAGGGTAGG
- binding result [7]: binds

Binder: GTAGGTTTTCCTAC (structured_DNA) [14-nt hairpin]
- binding result [8]: binds

B7: P8_F5 (dsDNA)
DNA 1: TTTCTATGGGAGAAGTAAACCTAAACTATCTCCAAA
DNA 2: TTTGGAGATAGTTTAGGTTTACTTCTCCCATAGAAACCTACCCTACGTCCTCCTGC
DNA 3: GCAGGAGGACGTAGGGTAGG
- binding result [9]: binds

B8: 18C-hairpin (structured_DNA)
DNA 1: AGTAGG
DNA 2: CCTAC
modifications: 18C spacer joins 3' end of strand 1 to 5' end of strand 2
- binding result [10]: binds

B9: 30-bp AUC DNA (dsDNA)
DNA 1: ATAGAAAAAACCTCCTTAAAACTATATTTG
DNA 2: CAAATATAGTTTTAAGGAGGTTTTTTCTAT
- binding result [11]: binds

B10: F10 (S10) (dsDNA)
DNA 1: TTGGGGCAGAAAACTTACAGAAACCAGCTA
DNA 2: TAGCTGGTTTCTGTAAGTTTTCTGCCCCAACCTACCCTACGTCCTCCTGC
DNA 3: GCAGGAGGACGTAGGGTAGG
- binding result [7]: binds

B11: F3 (S3) (dsDNA)
DNA 1: ATTAGGTTTATATAAGGTTTTAATTAGGTT
DNA 2: AACCTAATTAAAACCTTATATAAACCTAATCCTACCCTACGTCCTCCTGC
DNA 3: GCAGGAGGACGTAGGGTAGG
- binding result [7]: binds
